± gives the standard deviation of the averaged measurements.
What was measured:
MCF7 = assay: percentage of EdU-negative (G0-arrested) nuclei per well, 72 h; higher = more G0 arrest; conditions: reference: sequence is the full UniProt precursor, the tested protein was the secreted form or ectodomain
hTERT-HMEC = assay: as above; conditions: reference: sequence is the full UniProt precursor, the tested protein was the secreted form or ectodomain
[1] = protein concentration 0.0225 µM
[2] = protein concentration 0.0133825 µM
[3] = protein concentration 0.133825 µM
[4] = protein concentration 0.01325 µM
[5] = protein concentration 0.1325 µM
[6] = protein concentration 0.02025 µM
[7] = protein concentration 0.2025 µM
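Also: secreted proteins added to cultured cells, EdU pulse at the end, nuclei found by Hoechst imaging, EdU status from nuclear versus surrounding ring intensity ratio, PBS as neutral control.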

| Sequence | percentage of EdU-negative (MCF7; [1]) [%] | percentage of EdU-negative (MCF7; protein concentration 0.225 µM) [%] | percentage of EdU-negative (hTERT-HMEC; [1]) [%] | percentage of EdU-negative (hTERT-HMEC; protein concentration 0.225 µM) [%] | also measured |
| --- | --- | --- | --- | --- | --- |
| MRWILFIGALIGSSICGQEKFFGDQVLRINVRNGDEISKLSQLVNSNNLKLNFWKSPSSFNRPVDVLVPSVSLQAFKSFLRSQGLEYAVTIEDLQALLDNEDDEMQHNEGQERSSNNFNYGAYHSLEAIYHEMDNIAADFPDLARRVKIGHSFENRPMYVLKFSTGKGVRRPAVWLNAGIHSREWISQATAIWTARKIVSDYQRDPAITSILEKMDIFLLPVANPDGYVYTQTQNRLWRKTRSRNPGSSCIGADPNRNWNASFAGKGASDNPCSEVYHGPHANSEVEVKSVVDFIQKHGNFKGFIDLHSYSQLLMYPYGYSVKKAPDAEELDKVARLAAKALASVSGTEYQVGPTCTTVYPASGSSIDWAYDNGIKFAFTFELRDTGTYGFLLPANQIIPTAEETWLGLKTIMEHVRDNLY [Q9UI42] | 26.3 ± 1.7 | 29.1 ± 1.7 | 5.99 ± 0.71 | 5.12 ± 0.8 |  |
| MERRAWSLQCTAFVLFCAWCALNSAKAKRQFVNEWAAEIPGGPEAASAIAEELGYDLLGQIGSLENHYLFKHKNHPRRSRRSAFHITKRLSDDDRVIWAEQQYEKERSKRSALRDSALNLFNDPMWNQQWYLQDTRMTAALPKLDLHVIPVWQKGITGKGVVITVLDDGLEWNHTDIYANYDPEASYDFNDNDHDPFPRYDPTNENKHGTRCAGEIAMQANNHKCGVGVAYNSKVGGIRMLDGIVTDAIEASSIGFNPGHVDIYSASWGPNDDGKTVEGPGRLAQKAFEYGVKQGRQGKGSIFVWASGNGGRQGDNCDCDGYTDSIYTISISSASQQGLSPWYAEKCSSTLATSYSSGDYTDQRITSADLHNDCTETHTGTSASAPLAAGIFALALEANPNLTWRDMQHLVVWTSEYDPLANNPGWKKNGAGLMVNSRFGFGLLNAKALVDLADPRTWRSVPEKKECVVKDNDFEPRALKANGEVIIEIPTRACEGQENAIKSLEHVQFEATIEYSRRGDLHVTLTSAAGTSTVLLAERERDTSPNGFKNWDFMSVHTWGENPIGTWTLRITDMSGRIQNEGRIVNWKLILHGTSSQPEHMKQPRVYTSYNTVQNDRRGVEKMVDPGEEQPTQENPKENTLVSKSPSSSSVGGRRDELEEGAPSQAMLRLLQSAFSKNSPPKQSPKKSPSAKLNIPYENFYEALEKLNKPSQLKDSEDSLYNDYVDVFYNTKPYKHRDDRLLQALVDILNEEN |  |  |  |  | percentage of EdU-negative (MCF7; protein concentration 0.009 µM): 25.7 ± 4%; percentage of EdU-negative (MCF7; protein concentration 0.09 µM): 27.832 ± 0.026%; percentage of EdU-negative (hTERT-HMEC; protein concentration 0.009 µM): 4.928 ± 0.013%; percentage of EdU-negative (hTERT-HMEC; protein concentration 0.09 µM): 7.51 ± 0.97% |
| MGPLSAPPCTQHITWKGLLLTASLLNFWNLPTTAQVIIEAKPPKVSEGKDVLLLVHNLPQNLTGYIWYKGQMTDLYHYITSYVVHGQIIYGPAYSGRETVYSNASLLIQNVTQEDAGSYTLHIIKRGDGTGGVTGYFTVTLYSETPKPSISSSNLNPREVMEAVRLICDPETPDASYLWLLNGQNLPMTHRLQLSKTNRTLYLFGVTKYIAGPYECEIRNPVSASRSDPVTLNLLPKLPMPYITINNLNPREKKDVLAFTCEPKSRNYTYIWWLNGQSLPVSPRVKRPIENRILILPSVTRNETGPYQCEIRDRYGGIRSNPVTLNVLYGPDLPRIYPSFTYYRSGENLDLSCFADSNPPAEYSWTINGKFQLSGQKLFIPQITTNHSGLYACSVRNSATGKEISKSMIVKVSETASPQVTYAGPNTWFQEILLL |  |  |  |  | percentage of EdU-negative (MCF7; [2]): 24.7 ± 1.5%; percentage of EdU-negative (MCF7; [3]): 27.3 ± 1.4%; percentage of EdU-negative (hTERT-HMEC; [2]): 4.917 ± 0.044%; percentage of EdU-negative (hTERT-HMEC; [3]): 5.76 ± 1.7% |
| MPGGCSRGPAAGDGRLRLARLALVLLGWVSSSSPTSSASSFSSSAPFLASAVSAQPPLPDQCPALCECSEAARTVKCVNRNLTEVPTDLPAYVRNLFLTGNQLAVLPAGAFARRPPLAELAALNLSGSRLDEVRAGAFEHLPSLRQLDLSHNPLADLSPFAFSGSNASVSAPSPLVELILNHIVPPEDERQNRSFEGMVVAALLAGRALQGLRRLELASNHFLYLPRDVLAQLPSLRHLDLSNNSLVSLTYVSFRNLTHLESLHLEDNALKVLHNGTLAELQGLPHIRVFLDNNPWVCDCHMADMVTWLKETEVVQGKDRLTCAYPEKMRNRVLLELNSADLDCDPILPPSLQTSYVFLGIVLALIGAIFLLVLYLNRKGIKKWMHNIRDACRDHMEGYHYRYEINADPRLTNLSSNSDV | 25.8 ± 1.4 | 27.9 ± 0.44 | 4.65 ± 0.22 | 6.38 ± 0.11 |  |
| MTTWSLRRRPARTLGLLLLVVLGFLVLRRLDWSTLVPLRLRHRQLGLQAKGWNFMLEDSTFWIFGGSIHYFRVPREYWRDRLLKMKACGLNTLTTYVPWNLHEPERGKFDFSGNLDLEAFVLMAAEIGLWVILRPGPYICSEMDLGGLPSWLLQDPGMRLRTTYKGFTEAVDLYFDHLMSRVVPLQYKRGGPIIAVQVENEYGSYNKDPAYMPYVKKALEDRGIVELLLTSDNKDGLSKGIVQGVLATINLQSTHELQLLTTFLFNVQGTQPKMVMEYWTGWFDSWGGPHNILDSSEVLKTVSAIVDAGSSINLYMFHGGTNFGFMNGAMHFHDYKSDVTSYDYDAVLTEAGDYTAKYMKLRDFFGSISGIPLPPPPDLLPKMPYEPLTPVLYLSLWDALKYLGEPIKSEKPINMENLPVNGGNGQSFGYILYETSITSSGILSGHVHDRGQVFVNTVSIGFLDYKTTKIAVPLIQGYTVLRILVENRGRVNYGENIDDQRKGLIGNLYLNDSPLKNFRIYSLDMKKSFFQRFGLDKWSSLPETPTLPAFFLGSLSISSTPCDTFLKLEGWEKGVVFINGQNLGRYWNIGPQKTLYLPGPWLSSGINQVIVFEETMAGPALQFTETPHLGRNQYIK [Q8IW92] |  |  |  |  | percentage of EdU-negative (MCF7; [4]): 23.6 ± 0.28%; percentage of EdU-negative (MCF7; [5]): 27.7 ± 0.33%; percentage of EdU-negative (hTERT-HMEC; [4]): 4.88 ± 0.97%; percentage of EdU-negative (hTERT-HMEC; [5]): 9.63 ± 0.41% |
| MDMAWQMMQLLLLALVTAAGSAQPRSARARTDLLNVCMNAKHHKTQPSPEDELYGQCSPWKKNACCTASTSQELHKDTSRLYNFNWDHCGKMEPTCKRHFIQDSCLYECSPNLGPWIRQVNQSWRKERILNVPLCKEDCERWWEDCRTSYTCKSNWHKGWNWTSGINECPAGALCSTFESYFPTPAALCEGLWSHSFKVSNYSRGSGRCIQMWFDSAQGNPNEEVAKFYAAAMNAGAPSRGIIDS [A0A087WXL1] | 25.4 ± 0.5 | 24 ± 1.3 | 5.28 ± 0.77 | 4.93 ± 0.46 |  |
| MKMRFLGLVVCLVLWTLHSEGSGGKLTAVDPETNMNVSEIISYWGFPSEEYLVETEDGYILCLNRIPHGRKNHSDKGPKPVVFLQHGLLADSSNWVTNLANSSLGFILADAGFDVWMGNSRGNTWSRKHKTLSVSQDEFWAFSYDEMAKYDLPASINFILNKTGQEQVYYVGHSQGTTIGFIAFSQIPELAKRIKMFFALGPVASVAFCTSPMAKLGRLPDHLIKDLFGDKEFLPQSAFLKWLGTHVCTHVILKELCGNLCFLLCGFNERNLNMSRVDVYTTHSPAGTSVQNMLHWSQAVKFQKFQAFDWGSSAKNYFHYNQSYPPTYNVKDMLVPTAVWSGGHDWLADVYDVNILLTQITNLVFHESIPEWEHLDFIWGLDAPWRLYNKIINLMRKYQ | 25.12 ± 0.15 | 27.7 ± 0.37 | 4.11 ± 0.31 | 5.43 ± 0.3 |  |
| MRPLLLLALLGWLLLAEAKGDAKPEDNLLVLTVATKETEGFRRFKRSAQFFNYKIQALGLGEDWNVEKGTSAGGGQKVRLLKKALEKHADKEDLVILFADSYDVLFASGPRELLKKFRQARSQVVFSAEELIYPDRRLETKYPVVSDGKRFLGSGGFIGYAPNLSKLVAEWEGQDSDSDQLFYTKIFLDPEKREQINITLDHRCRIFQNLDGALDEVVLKFEMGHVRARNLAYDTLPVLIHGNGPTKLQLNYLGNYIPRFWTFETGCTVCDEGLRSLKGIGDEALPTVLVGVFIEQPTPFVSLFFQRLLRLHYPQKHMRLFIHNHEQHHKAQVEEFLAQHGSEYQSVKLVGPEVRMANADARNMGADLCRQDRSCTYYFSVDADVALTEPNSLRLLIQQNKNVIAPLMTRHGRLWSNFWGALSADGYYARSEDYVDIVQGRRVGVWNVPYISNIYLIKGSALRGELQSSDLFHHSKLDPDMAFCANIRQQDVFMFLTNRHTLGHLLSLDSYRTTHLHNDLWEVFSNPEDWKEKYIHQNYTKALAGKLVETPCPDVYWFPIFTEVACDELVEEMEHFGQWSLGNNKDNRIQGGYENVPTIDIHMNQIGFEREWHKFLLEYIAPMTEKLYPGYYTRAQFDLAFVVRYKPDEQPSLMPHHDASTFTINIALNRVGVDYEGGGCRFLRYNCSIRAPRKGWTLMHPGRLTHYHEGLPTTRGTRYIAVSFVDP |  |  |  |  | percentage of EdU-negative (MCF7; [6]): 27 ± 1.9%; percentage of EdU-negative (MCF7; [7]): 27.54 ± 0.046%; percentage of EdU-negative (hTERT-HMEC; [6]): 4.5 ± 0.15%; percentage of EdU-negative (hTERT-HMEC; [7]): 7.829 ± 0.054% |
| MKASSLAFSLLSAAFYLLWTPSTGLKTLNLGSCVIATNLQEIRNGFSEIRGSVQAKDGNIDIRILRRTESLQDTKPANRCCLLRHLLRLYLDRVFKNYQTPDHYTLRKISSLANSFLTIKKDLRLCHAHMTCHCGEEAMKKYSQILSHFEKLEPQAAVVKALGELDILLQWMEETE [Q9NYY1] | 25.2 ± 0.85 | 27.2 ± 2.3 | 4.59 ± 0.14 | 8.36 ± 0.57 |  |
| MTALFLMSMLFGLTCGQAMSFCIPTEYTMHIERRECAYCLTINTTICAGYCMTRDINGKLFLPKYALSQDVCTYRDFIYRTVEIPGCPLHVAPYFSYPVALSCKCGKCNTDYSDCIHEAIKTNYCTKPQKSYLVGFSV |  |  |  |  | percentage of EdU-negative (MCF7; protein concentration 0.017 µM): 27.8 ± 3.8%; percentage of EdU-negative (MCF7; protein concentration 0.17 µM): 27.2 ± 1.9%; percentage of EdU-negative (hTERT-HMEC; protein concentration 0.017 µM): 5.28 ± 0.69%; percentage of EdU-negative (hTERT-HMEC; protein concentration 0.17 µM): 9.97 ± 1.1% |
| MLLLINVILTLWVSCANGQEVKPCDFPEIQHGGLYYKSLRRLYFPAAAGQSYSYYCDQNFVTPSGSYWDYIHCTQDGWSPTVPCLRTCSKSDVEIENGFISESSSIYILNEETQYNCKPGYATAEGNSSGSITCLQNGWSTQPICIKFCDMPVFENSRAKSNGMWFKLHDTLDYECYDGYESSYGNTTDSIVCGEDGWSHLPTCYNSSENCGPPPPISNGDTTSFPQKVYLPWSRVEYQCQSYYELQGSKYVTCSNGDWSEPPRCISMKPCEFPEIQHGHLYYENTRRPYFPVATGQSYSYYCDQNFVTPSGSYWDYIHCTQDGWLPTVPCLRTCSKSDIEIENGFISESSSIYILNKEIQYKCKPGYATADGNSSGSITCLQNGWSAQPICIKFCDMPVFENSRAKSNGMRFKLHDTLDYECYDGYEISYGNTTGSIVCGEDGWSHFPTCYNSSEKCGPPPPISNGDTTSFLLKVYVPQSRVEYQCQSYYELQGSNYVTCSNGEWSEPPRCIHPCIITEENMNKNNIQLKGKSDIKYYAKTGDTIEFMCKLGYNANTSVLSFQAVCREGIVEYPRCE | 24.7 ± 2.6 | 28.7 ± 0.4 | 4.84 ± 0.38 | 4.68 ± 0.36 |  |

From the supplement of paper PMC11316812
